For one variant, ratio to parent results are on record in PMC7226732 (2020).

The chains are these.
B1: V5-Cx40 (wild type) [rat] / GFP-LC3B (expressed in HEK293A cells) [not stated (human cDNA cloned; a plasmid from Dr. Yoshimori also named)] (parent complex)
chain 1: MGDWSFLGEFLEEVHKHSTVIGKVWLTVLFIFRMLVLGTAAESSWGDEQADFRCDTIQPGCQNVCYDQAFPISHIRYWVLQIIFVSTPSLVYMGHAMHTVRMQEKQKLREAEKAKEAGGTGTYEYLAEKAELSCWKEVNGKIVLQGTLLNTYVCTILIRTAMEVAFMVGQYLLYGIFLDTLHVCRRSPCPHPVNCYVSRPTEKNVFIVFMMAVAGLSLFLSLAELYHLGWKKIRQRLAKSRQGDKHQLLGPSTSLVQGLTPPPDFNQCLKNSPDEKFFSDFSNNMGSRKNPDPLATEEVPNQEQIPEEGFIHTQYGQKPEQPSGASAGHRFPQGYHSDKRRLSKASSKARSDDLSV
chain 2: not shown

The test covers variants of B1. Kind of test: co-immunoprecipitation (IP: V5) and Western blot quantification; HEK293A cell lysates; read off a plot. A general note: A western blot detects proteins with antibodies after separation by electrophoresis.
For chain 1 W4A, chain 1 L7A, the ratio to parent is ~1.9.
